Measurements from US20160200831A1 (Sanofi, published 2016).
Where two headings read alike, the source gives them in different places.

Legend:
human PAI-1 [1] = biological target: T1, human PAI-1 (human, UniProt P05121 24-402); test: Biacore, hybridoma supernatant
T1 construct: also used for endogenous PAI-1 of human plasma, liver lysate and lung fibroblasts; also called hPAI-1; hPAI

[2] = biological target: T2, glycosylated human PAI-1 (active form) (human, UniProt P05121 24-402, glycosylated); test: cell-based or functional assay
T2 sequence (P05121 24-402 limits assumed): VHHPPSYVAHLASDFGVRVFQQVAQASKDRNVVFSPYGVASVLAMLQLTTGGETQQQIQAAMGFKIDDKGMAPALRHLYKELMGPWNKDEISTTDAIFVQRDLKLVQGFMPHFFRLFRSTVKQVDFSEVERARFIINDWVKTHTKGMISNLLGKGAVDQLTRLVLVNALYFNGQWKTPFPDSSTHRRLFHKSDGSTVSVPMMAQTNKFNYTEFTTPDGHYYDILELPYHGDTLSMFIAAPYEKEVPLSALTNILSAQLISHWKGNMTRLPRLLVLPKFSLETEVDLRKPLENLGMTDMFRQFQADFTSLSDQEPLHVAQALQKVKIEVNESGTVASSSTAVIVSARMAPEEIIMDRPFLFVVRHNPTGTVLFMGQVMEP

[3] = biological target: T2, glycosylated human PAI-1 (active form); test: cell-based or functional assay; remark: listed apart in the source
human PAI-1 [4] = biological target: T1, human PAI-1; test: cell-based or functional assay
[5] = biological target: T3, cyno PAI-1 captured on immobilized human vitronectin (cynomolgus monkey; human, UniProt P04004 20-478, limits assumed); test: Biacore, cPAI-1 on vitronectin chip, 1:1 model
T3 construct: non-covalent complex formed on the chip; also called cPAI-1/Vn
T3 sequence (chain, as listed by the source limits assumed, chain 1 of 2): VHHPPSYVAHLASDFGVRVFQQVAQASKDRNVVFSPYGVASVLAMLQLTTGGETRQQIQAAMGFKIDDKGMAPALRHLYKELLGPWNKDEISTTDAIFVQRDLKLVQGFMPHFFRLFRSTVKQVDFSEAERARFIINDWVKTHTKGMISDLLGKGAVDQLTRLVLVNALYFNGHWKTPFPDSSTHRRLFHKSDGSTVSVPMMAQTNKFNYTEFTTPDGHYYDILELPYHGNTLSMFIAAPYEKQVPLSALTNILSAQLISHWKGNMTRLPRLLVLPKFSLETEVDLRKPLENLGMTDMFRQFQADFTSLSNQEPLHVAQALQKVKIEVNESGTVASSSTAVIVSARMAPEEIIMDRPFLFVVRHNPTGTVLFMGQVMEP
T3 sequence (P04004 20-478 limits assumed, chain 2 of 2): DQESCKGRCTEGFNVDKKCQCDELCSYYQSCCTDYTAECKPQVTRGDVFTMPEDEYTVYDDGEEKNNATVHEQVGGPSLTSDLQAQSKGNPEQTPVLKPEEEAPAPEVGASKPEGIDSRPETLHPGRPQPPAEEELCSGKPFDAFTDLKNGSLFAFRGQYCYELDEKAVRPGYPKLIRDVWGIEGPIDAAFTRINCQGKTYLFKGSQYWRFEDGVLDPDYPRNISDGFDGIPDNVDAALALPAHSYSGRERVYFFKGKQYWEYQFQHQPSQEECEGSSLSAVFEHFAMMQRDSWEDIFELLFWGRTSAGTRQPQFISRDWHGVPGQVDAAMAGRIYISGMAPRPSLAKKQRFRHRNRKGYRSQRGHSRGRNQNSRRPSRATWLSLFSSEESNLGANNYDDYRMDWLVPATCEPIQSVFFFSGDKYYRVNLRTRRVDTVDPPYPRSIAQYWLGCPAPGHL

[6] = biological target: T4, human PAI-1 captured on immobilized human vitronectin (human, UniProt P04004 20-478); test: Biacore, hPAI-1 on vitronectin chip, 1:1 model
T4 construct: non-covalent complex formed on the chip or plate; also called PAI-1/Vn complex; Vn captured hPAI-1
T4 sequence (chain, as listed by the source limits assumed, chain 1 of 2): as the sequence (P05121 24-402 limits assumed) above
T4 sequence (P04004 20-478 limits assumed, chain 2 of 2): as the sequence (P04004 20-478 limits assumed, chain 2 of 2) above

[7] = biological target: T2, glycosylated human PAI-1 (active form); test: cell-based or functional assay; remark: listed apart in the source
[8] = biological target: T3, cyno PAI-1 captured on immobilized …; test: Biacore, cPAI-1 on vitronectin chip, two state reaction model (kd1)
[9] = biological target: T3, cyno PAI-1 captured on immobilized …; test: Biacore, cPAI-1 on vitronectin chip, two state reaction model (ka1)
[10] = biological target: T3, cyno PAI-1 captured on immobilized …; test: Biacore, cPAI-1 on vitronectin chip, two state reaction model
cynomolgus PAI-1 [11] = biological target: T5, cynomolgus PAI-1 (cynomolgus monkey (Macaca fascicularis), UniProt P05121 24-402 (human entry)); test: Biacore, mAb on anti-human IgG Fc chip / cyno PAI-1, 1:1 model
T5 construct: produced in-house in E. coli (non-glycosylated); active cyno PAI-1 in the assays; also called cyno PAI-1; cPAI-1

human PAI-1 [12] = biological target: T1, human PAI-1; test: Biacore, mAb on anti-human IgG Fc chip, 1:1 model
[13] = biological target: T2, glycosylated human PAI-1 (active form); test: cell-based or functional assay; remark: listed apart in the source
cynomolgus PAI-1 [14] = biological target: T5, cynomolgus PAI-1; test: cell-based or functional assay
human PAI-1 [15] = biological target: T1, human PAI-1; test: cell-based or functional assay; remark: listed apart in the source

T1 sequence (P05121 24-402 limits assumed): as the sequence (P05121 24-402 limits assumed) above

Row | Binder | Chromogenic Assay IC50 (human PAI-1 [4]) | Kd [5] | koff [5] | kon [5] | Kd [6] | koff [6] | kon [6] | Plasminogen Activation Y50% [7] | Plasminogen Activation IC50 [7] | Plasminogen Activation IC50 [13] | Plasminogen Activation Y50% [13] | also measured
1 | C45 (antibody, mouse IgG2b, V domains shown, mouse IgG2b; also called mC45; C45 (IgG2b)) VH: QVQLQQSGVELVRPGTSVKVSCKASGYAFTNYLIEWIKQRPGQGLEWIGVIHPGSGVTNYNEKFKGKAILTADKSSSTAYMQLSSLTSDDSAVYFCARDYYGSSHGLMDYWGQGTSVTVSS VL: DIKMTQSPSSMYASLGERVTITCKASQDINSYLSWFQQKPGKSPKTLIYRANRLVDGVPSRFSGSGSGQDYSLTISSLEYEDMGIYYCLQYDEFPRTFGGGTKLEIK | – | – | – | – | – | – | – | – | – | – | – | koff (human PAI-1 [1]): ≤ 0.0001 s⁻¹; Chromogenic Assays [2]: 0.5 nM; Plasmin Generation [2]: 10.6 nM; plasmin generation, hepatic stellate cells, IC50abs [3]: 6500 pM; plasmin generation, hepatic stellate cells, Imax [3]: 97%
2 | A44-hv5 (antibody, V domains shown, humanized A44, HEK293; constant regions as for A44-hv1; also called LC2 x HC2b; variant 5) VH: EMTLKESGPTLVKPTQTLSLTCSVTGDSMTQGYWNWIRKFPGKALEYMGYITYSGSTYYNPSLKGRISITRNTSKNQYYLTLSSVTTVDTATYYCARWHYGSPYYFDYWGQGTTLTVSS VL: DIKMTQSPSSLSASVGDRVTITCKASQDINSYLSWLQQKPGKSPKTLIYRAQRSVEGVPSRFSGSGSGQDYSLTISSLQPEDLGIYYCLQYDEFPPTFGGGTKLEIK | 1110 pM | 32.6 pM | 0.000111 s⁻¹ | 3.4e+06 M⁻¹ s⁻¹ | 10.2 pM | 2.76e-05 s⁻¹ | 2.72e+06 M⁻¹ s⁻¹ | – | – | – | – | –
3 | A44-hv4 (antibody, V domains shown, humanized A44, HEK293; constant regions as for A44-hv1; also called LC1a x HC2b; variant 4) VH: EMTLKESGPTLVKPTQTLSLTCSVTGDSMTQGYWNWIRKFPGKALEYMGYITYSGSTYYNPSLKGRISITRNTSKNQYYLTLSSVTTVDTATYYCARWHYGSPYYFDYWGQGTTLTVSS VL: DIKMTQSPSSLSASVGDRVTITCKASQDINSYLSWLQQKPGKSPKTLIYRANRSVDGVPSRFSGSGSGQDYSLTISSLQPEDLGIYYCLQYDEFPPTFGGGTKLEIK | 520 pM | – | – | – | 19.2 pM | 8.8e-05 s⁻¹ | 4.59e+06 M⁻¹ s⁻¹ | 26% | – | – | – | koff [8]: 0.00017 s⁻¹; kon [9]: 226000 M⁻¹ s⁻¹; Kd [10]: 752 pM
4 | A44-hv6 (antibody, V domains shown, humanized A44, HEK293; constant regions as for A44-hv1; also called LC3 x HC3; variant 6) VH: QMTLKESGPTLVKPTQTLSLTCSVSGDSMTNGYWNWIRQFPGKALEYMGYITYSGSTYYNPSLKGRITITRDTSKNQYYLTLSSVTTVDTATYYCARWHYGSPYYFDYWGQGTTLTVSS VL: DIKMTQSPSSLSASVGDRVTITCKASQDINSYLSWLQQKPGKSPKTLIYRANRSVDGVPSRFSGSGSGQDYSLTISSLQPEDLATYYCLQYDEFPPTFGGGTKLEIK | 820 pM | 5.01 pM | 2.51e-05 s⁻¹ | 5.26e+06 M⁻¹ s⁻¹ | 13.3 pM | 5.68e-05 s⁻¹ | 4.38e+06 M⁻¹ s⁻¹ | 56.9% | 1780 pM | – | – | –
5 | A44-hv12 (antibody, V domains shown, humanized A44, HEK293; constant regions as for A44-hv1; also called LC4 x HC3; variant 12) VH: QMTLKESGPTLVKPTQTLSLTCSVSGDSMTNGYWNWIRQFPGKALEYMGYITYSGSTYYNPSLKGRITITRDTSKNQYYLTLSSVTTVDTATYYCARWHYGSPYYFDYWGQGTTLTVSS VL: DIKMTQSPSSLSASVGDRVTITCKASQDINSYLSWLQQKPGKSPKTLIYRAQRSVEGVPSRFSGSGSGQDYSLTISSLQPEDLATYYCLQYDEFPPTFGGGTKLEIK | – | 56.9 pM | 0.000235 s⁻¹ | 4.26e+06 M⁻¹ s⁻¹ | 16.1 pM | 8.14e-05 s⁻¹ | 5.15e+06 M⁻¹ s⁻¹ | – | – | 1990 pM | 76.7% | Kd (cynomolgus PAI-1 [11]): 24.4 pM; koff (cynomolgus PAI-1 [11]): 5.45e-05 s⁻¹; kon (cynomolgus PAI-1 [11]): 2.24e+06 M⁻¹ s⁻¹; Kd (human PAI-1 [12]): 41.4 pM; koff (human PAI-1 [12]): 6.7e-05 s⁻¹; kon (human PAI-1 [12]): 1.62e+06 M⁻¹ s⁻¹; active PAI-1 by uPA-PAI-1 complex ELISA, Cyno PAI-1, IC50 (cynomolgus PAI-1 [14]): 26.6 pM; active PAI-1 by uPA-PAI-1 complex ELISA, Cyno PAI-1, Y50% (cynomolgus PAI-1 [14]): 53.5%; active PAI-1 by uPA-PAI-1 complex ELISA, hPAI-1 Standard, IC50 (human PAI-1 [15]): 114 pM; active PAI-1 by uPA-PAI-1 complex ELISA, hPAI-1 Standard, Y50% (human PAI-1 [15]): 53.5%; active PAI-1 by uPA-PAI-1 complex ELISA, hPlasma TH1782, IC50 (human PAI-1 [15]): 3.35 pM; active PAI-1 by uPA-PAI-1 complex ELISA, hPlasma TH1782, Y50% (human PAI-1 [15]): 37.7%
6 | A44-hv1 (antibody, V domains shown, humanized A44, HEK293; also called LC1a x HC1a; variant 1) VH: EMTLKESGPTLVKPTQTLSLTCSVTGDSMTNGYWNWIRKFPGKALEYMGYITYSGSTYYNPSLKGRISITRNTSKNQYYLTLSSVTTVDTATYYCARWHYGSPYYFDYWGQGTTLTVSS VL: DIKMTQSPSSLSASVGDRVTITCKASQDINSYLSWLQQKPGKSPKTLIYRANRSVDGVPSRFSGSGSGQDYSLTISSLQPEDLGIYYCLQYDEFPPTFGGGTKLEIK | 490 pM | – | – | – | 52.6 pM | 0.000555 s⁻¹ | 1.1e+07 M⁻¹ s⁻¹ | 45% | 3120 pM | 2080 pM | 58.5% | koff [8]: 0.00827 s⁻¹; kon [9]: 3.37e+06 M⁻¹ s⁻¹; Kd [10]: 2450 pM
7 | A44-hv9 (antibody, V domains shown, humanized A44, HEK293; constant regions as for A44-hv1; also called LC5b x HC5b; variant 9) VH: QMQLQESGPGLVKPSETLSLTCTVSGDSMTNGYWNWIRQPPGKGLEYMGYITYSGSTYYNPSLKSRITISRDTSKNQYSLKLSSVTAADTAVYYCARWHYGSPYYFDYWGQGTLVTVSS VL: DIQMTQSPSSLSASVGDRVTITCKASQDINSYLSWLQQKPGKAPKTLIYRANRSVDGVPSRFSGSGSGQDYTFTISSLQPEDIATYYCLQYDEFPPTFGGGTKVEIK | 860 pM | 21.5 pM | 0.000134 s⁻¹ | 6.51e+06 M⁻¹ s⁻¹ | 17 pM | 0.000103 s⁻¹ | 6.36e+06 M⁻¹ s⁻¹ | 46.5% | 1900 pM | 1510 pM | 50.9% | –
8 | A44-hv14 (antibody, V domains shown, humanized A44, HEK293; constant regions as for A44-hv1; also called LC4 x HC5b; variant 14) VH: QMQLQESGPGLVKPSETLSLTCTVSGDSMTNGYWNWIRQPPGKGLEYMGYITYSGSTYYNPSLKSRITISRDTSKNQYSLKLSSVTAADTAVYYCARWHYGSPYYFDYWGQGTLVTVSS VL: DIKMTQSPSSLSASVGDRVTITCKASQDINSYLSWLQQKPGKSPKTLIYRAQRSVEGVPSRFSGSGSGQDYSLTISSLQPEDLATYYCLQYDEFPPTFGGGTKLEIK | – | 38.6 pM | 0.000213 s⁻¹ | 5.86e+06 M⁻¹ s⁻¹ | 9.57 pM | 3.95e-05 s⁻¹ | 4.06e+06 M⁻¹ s⁻¹ | – | – | 1820 pM | 61.2% | Kd (cynomolgus PAI-1 [11]): 11.5 pM; koff (cynomolgus PAI-1 [11]): 2.69e-05 s⁻¹; kon (cynomolgus PAI-1 [11]): 2.32e+06 M⁻¹ s⁻¹; Kd (human PAI-1 [12]): 27 pM; koff (human PAI-1 [12]): 3.42e-05 s⁻¹; kon (human PAI-1 [12]): 1.25e+06 M⁻¹ s⁻¹; active PAI-1 by uPA-PAI-1 complex ELISA, Cyno PAI-1, IC50 (cynomolgus PAI-1 [14]): 28.7 pM; active PAI-1 by uPA-PAI-1 complex ELISA, Cyno PAI-1, Y50% (cynomolgus PAI-1 [14]): 52.5%; active PAI-1 by uPA-PAI-1 complex ELISA, hPAI-1 Standard, IC50 (human PAI-1 [15]): 56.3 pM; active PAI-1 by uPA-PAI-1 complex ELISA, hPAI-1 Standard, Y50% (human PAI-1 [15]): 52.5%; active PAI-1 by uPA-PAI-1 complex ELISA, hPlasma TH1782, IC50 (human PAI-1 [15]): 58.6 pM; active PAI-1 by uPA-PAI-1 complex ELISA, hPlasma TH1782, Y50% (human PAI-1 [15]): 73.9%
9 | A44-hv8 (antibody, V domains shown) VH: QVQLQESGPGLVKPSETLSLTCTVSGDSMTNGYWNWIRQPPGKGLEYMGYITYSGSTYYNPSLKSRITISRNTSKNQYSLKLSSVTAADTAVYYCARWHYGSPYYFDYWGQGTLVTVSS VL: DIQMTQSPSSLSASVGDRVTITCKASQDINSYLSWLQQKPGKAPKLLIYRANRSVDGVPSRFSGSGSGTDYTFTISSLQPEDIATYYCLQYDEFPPTFGGGTKVEIK | 760 pM | – | – | – | – | – | – | 11% | – | – | – | –
